{"source": "patent US20250035634A1", "about": "“A METHOD FOR DETECTING CLUSTERING OF RAS PROTEIN” (Nanyang Technological University, priority 2021, published 2025)", "tested_on": "KRasWT", "assay": "nanobar-guided KRasWT clustering upon EGF activation in U2OS cells", "type": "cell-based", "settings": "EGF 100 ng/ml, 1 hr, mean±s.e.m.", "method": "Cell imaging is performed with laser scanning confocal microscopy (Zeiss LSM 800 with Airyscan) and a Plan-Apochromat 100×/1.4 oil objective. EGFP is excited at 488 nm and detected at 490-570 nm. RFP is excited at 561 nm and detected at 570-645 nm. Images were taken with a resolution of 512×512 pixels, 16-bit and 124 nm pixel size. A scanning speed of 20 s/image and an averaging mode of 4 times/line can be applied. During imaging, the cells are maintained in live cell imaging solution (Thermo Fisher) at 37° C. in an on-stage incubator. […] The images are conducted with a single snap shot for display of Ras variants and the quantification. For the imaging of co-expressed K-Ras variants and CRaf-RBD, z-stack images can be taken and averaged for display and the intensity profiles. […]\nTo quantify the nanobar-guided clustering of Ras variants, the fluorescence intensity ratio at the nanobar end to the flat sidewall (i.e. Enrichment Index, EI) is calculated. […] Next, the nanobars covered by the cell to be analyzed are identified by a custom-written MATLAB (MathWorks) code. […] To minimize the possible human bias, all the parameters for the calculation and the sorting criteria for data validation have been kept consistent throughout the entire quantification process. After the data validation, the remaining data points are ready for plotting. […]", "data": [{"molecule": "EGF: Epidermal Growth Factor used to activate wild-type K-Ras in cells (protein, UniProt P01133 23-1207, looked up, Pro-epidermal growth factor) Pro-epidermal growth factor: PQHWSCPEGTLAGNGNSTCVGPAPFLIFSHGNSIFRIDTEGTNYEQLVVDAGVSVIMDFHYNEKRIYWVDLERQLLQRVFLNGSRQERVCNIEKNVSGMAINWINEEVIWSNQQEGIITVTDMKGNNSHILLSALKYPANVAVDPVERFIFWSSEVAGSLYRADLDGVGVKALLETSEKITAVSLDVLDKRLFWIQYNREGSNSLICSCDYDGGSVHISKHPTQHNLFAMSLFGDRIFYSTWKMKTIWIANKHTGKDMVRINLHSSFVPLGELKVVHPLAQPKAEDDTWEPEQKLCKLRKGNCSSTVCGQDLQSHLCMCAEGYALSRDRKYCEDVNECAFWNHGCTLGCKNTPGSYYCTCPVGFVLLPDGKRCHQLVSCPRNVSECSHDCVLTSEGPLCFCPEGSVLERDGKTCSGCSSPDNGGCSQLCVPLSPVSWECDCFPGYDLQLDEKSCAASGPQPFLLFANSQDIRHMHFDGTDYGTLLSQQMGMVYALDHDPVENKIYFAHTALKWIERANMDGSQRERLIEEGVDVPEGLAVDWIGRRFYWTDRGKSLIGRSDLNGKRSKIITKENISQPRGIAVHPMAKRLFWTDTGINPRIESSSLQGLGRLVIASSDLIWPSGITIDFLTDKLYWCDAKQSVIEMANLDGSKRRRLTQNDVGHPFAVAVFEDYVWFSDWAMPSVMRVNKRTGKDRVRLQGSMLKPSSLVVVHPLAKPGADPCLYQNGGCEHICKKRLGTAWCSCREGFMKASDGKTCLALDGHQLLAGGEVDLKNQVTPLDILSKTRVSEDNITESQHMLVAEIMVSDQDDCAPVGCSMYARCISEGEDATCQCLKGFAGDGKLCSDIDECEMGVPVCPPASSKCINTEGGYVCRCSEGYQGDGIHCLDIDECQLGEHSCGENASCTNTEGGYTCMCAGRLSEPGLICPDSTPPPHLREDDHHYSVRNSDSECPLSHDGYCLHDGVCMYIEALDKYACNCVVGYIGERCQYRDLKWWELRHAGHGQQQKVIVVAVCVVVLVMLLLLSLWGAHYYRTQKLLSKNPKNPYEESSRDVRSRRPADTEDGMSSCPQPWFVVIKEHQDLKNGGQPVAGEDGQAADGSMQPTSWRQEPQLCGMGTEQGCWIPVSSDKGSCPQVMERSFHMPSYGTQTLEGGVEKPHSLLSANPLWQQRALDPPHQMELTQ", "values": [{"measurement": "Enrichment Index (EI) of KRasWT", "value": "1.89 ± 0.042"}]}]}
